{"source": "the RNAGym collection of RNA variant scans (doi:10.7554/elife.90254)", "parents": {"B1": {"name": "OR4K15 (parent)", "chain": "GUUAACGGUCAUAGGCCAUGGAAACUAGGAGCACCAUUUCGCUGCCAGUGAAGAAAUGAACAAAGAAAAUCUGGGCCAGGCAGGCAUCAAAAGAAAUAGUCUUGCGCUCAACCAGAAAGUCUGUAAUCAUUUUAAGGGUA"}}}
{"variants_of": "B1", "test": "self-cleavage, relative activity (ratio to wild type); higher = more cleavage; in vitro, sequencing; the parent is a self-cleaving ribozyme"}
{"variant": "A66C U131A", "self-cleavage": 1.1}
{"variant": "A67U A114G", "self-cleavage": 0.66}
{"variant": "A66G A90G", "self-cleavage": 1.17}
{"variant": "A67G A92G", "self-cleavage": 1.31}
{"variant": "A67G A92C", "self-cleavage": 1.62}
{"variant": "A67G A78G", "self-cleavage": 0.21}
{"variant": "A68G G106U", "self-cleavage": 0.02}
{"variant": "A67G G106A", "self-cleavage": 0.02}
{"variant": "A68G A69C", "self-cleavage": 0.94}
{"variant": "A68G A69U", "self-cleavage": 1.38}
{"variant": "A68G A69G", "self-cleavage": 0.87}
{"variant": "A64U U102A", "self-cleavage": 1.07}
{"variant": "A64U U102C", "self-cleavage": 2.23}
{"variant": "A67U A118G", "self-cleavage": 1.4}
{"variant": "A66G G73U", "self-cleavage": 0.3}
{"variant": "A67C A126G", "self-cleavage": 2.11}
{"variant": "A66U A95G", "self-cleavage": 1.87}
{"variant": "A64G U70C", "self-cleavage": 0.57}
{"variant": "A64G U131A", "self-cleavage": 0.6}
{"variant": "A64U G115A", "self-cleavage": 0.02}
{"variant": "A68G A116G", "self-cleavage": 0.8}
{"variant": "A64U A90G", "self-cleavage": 0.32}
{"variant": "A66G G83A", "self-cleavage": 1.56}
{"variant": "A66G A92U", "self-cleavage": 1.98}
{"variant": "A67U A82G", "self-cleavage": 0.9}
{"variant": "A67G G75C", "self-cleavage": 0.03}
{"variant": "A67C A89U", "self-cleavage": 2.57}
{"variant": "A66G G136A", "self-cleavage": 1.72}
{"variant": "A68C U130A", "self-cleavage": 0.98}
{"variant": "G65A A78G", "self-cleavage": 0.2}
{"variant": "A64U A92C", "self-cleavage": 1.53}
{"variant": "A64G A129U", "self-cleavage": 0.99}
{"variant": "A64G A129G", "self-cleavage": 1.14}
{"variant": "A64G A129C", "self-cleavage": 1.8}
{"variant": "A66G A110C", "self-cleavage": 0.37}
{"variant": "A66G A110G", "self-cleavage": 0.15}
{"variant": "A67G C128U", "self-cleavage": 0.62}
{"variant": "A64U A94U", "self-cleavage": 1.63}
{"variant": "A64G U102C", "self-cleavage": 2.06}
{"variant": "A66U A78U", "self-cleavage": 0.32}
{"variant": "A64G U103C", "self-cleavage": 1.2}
{"variant": "A67G A86U", "self-cleavage": 2.13}
{"variant": "A66G U103A", "self-cleavage": 0.32}
{"variant": "A66G U103C", "self-cleavage": 1.06}
{"variant": "A67G U122C", "self-cleavage": 0.99}
{"variant": "A67G U122A", "self-cleavage": 0.99}
{"variant": "A66G A98U", "self-cleavage": 1.08}
{"variant": "A67G U124A", "self-cleavage": 0.87}
{"variant": "A67G U124G", "self-cleavage": 1.24}
{"variant": "A64G U108A", "self-cleavage": 0.01}
{"variant": "A66G A135G", "self-cleavage": 0.47}
{"variant": "A64G A98C", "self-cleavage": 1.73}
{"variant": "A66G U131C", "self-cleavage": 1.04}
{"variant": "A64G U132C", "self-cleavage": 1.53}
{"variant": "A64G U132A", "self-cleavage": 1.85}
{"variant": "A66G U122A", "self-cleavage": 1.63}
{"variant": "A66G U122G", "self-cleavage": 2.19}
{"variant": "A66G U122C", "self-cleavage": 1.67}
{"variant": "A64U A82U", "self-cleavage": 0.19}
{"variant": "A64G G75U", "self-cleavage": 0.12}
{"variant": "A67G A129C", "self-cleavage": 1.2}
{"variant": "A67G A129U", "self-cleavage": 1.03}
{"variant": "A67G A129G", "self-cleavage": 0.85}
{"variant": "A66U A90G", "self-cleavage": 1.22}
{"variant": "A64G U97C", "self-cleavage": 1.63}
{"variant": "A66G C77A", "self-cleavage": 0.91}
{"variant": "A66U A86C", "self-cleavage": 1.36}
{"variant": "A64G A140U", "self-cleavage": 1.37}
{"variant": "A67G U120A", "self-cleavage": 1.38}
{"variant": "A66U U124C", "self-cleavage": 1.25}
{"variant": "A68G A129U", "self-cleavage": 1.42}
{"variant": "A68G A129G", "self-cleavage": 1.05}
{"variant": "A68G A129C", "self-cleavage": 0.82}
{"variant": "A64G A66U", "self-cleavage": 0.44}
{"variant": "A64G A66G", "self-cleavage": 1.39}
{"variant": "A66C A67G", "self-cleavage": 0.46}
{"variant": "A64U A110G", "self-cleavage": 0.11}
{"variant": "A68G A118G", "self-cleavage": 0.77}
{"variant": "A68G A118C", "self-cleavage": 0.67}
{"variant": "A68G A118U", "self-cleavage": 0.83}
{"variant": "A66U A89U", "self-cleavage": 0.62}
{"variant": "A68G G138A", "self-cleavage": 1.67}
{"variant": "A67G U102C", "self-cleavage": 1.56}
